This experiment has as its target Varicella Zoster Virus (VZV) antigens (lysate of VZV-infected MRC-5 cells, VZV-infected MRC-5 cells, cell-free VZV; ELLEN strain) (Varicella Zoster Virus (ELLEN strain, ATCC VR-586)). The experiment can be described thus: cell-based or functional assay.

B1: FLAGhis-tagged DDF-VZV1 human Fab expressed using pDLac-VZV1-FLAGhis (Fab)
heavy: LESGPGLVKPSETLSLTCSVSGGSITTKDFSWAWIRQPPGKGLEWIGSIYYSGTTHYSPSLKSRVIMSVDTSDNKFSLSLTSVTAADTAVYYCARQLGRSPGIYSFWRDHRTSAFDFWGQGTLATVSAASTKGPSVFPLAPSSKSTSGGTAALGCLVKDYFPEPVTVSWNSGALTSGVHTFPAVLQSSGLYSLSSVVTVPSSSLGTQTYICNVNHKPSNTKVDKKVEPKSCDKTSDYKDDDDKHHHHHH
light: ELTQSPSSLSASVGDRVTITCRATQSISSYLSWYQQKPGQAPKLLIYGASNLQSGVPSRFSGSGSGTDFTLTINSLQPEDFATYYCQQTLSTPFTFGPGTRVDFKRTVAAPSVFIFPPSDEQLKSGTASVVCLLNNFYPREAKVQWKVDNALQSGNSQESVTEQDSKDSTYSLSSTLTLSKADYEKHKVYACEVTHQGLSSPVTKSFNRGEC
Regarding B1, the VZV-neutralizing activity, IC50 (plaque reduction) turned out to be 2 µg/mL.

B2: FLAGhis-tagged DDF-VZV2 human Fab expressed using pDLac-VZV2-FLAGhis (Fab)
heavy: LESGGGLVQPGGSLRLSCEASGFTFSSYTMNWVRQAPGKGLEWVSWISSSGSDIYYAESVKGRFTISRDNAKNSLYLQMNSLRDEDTALYYCARDGIDSSSSWGGEPYFYTMDFWGQGTTVIVSSASTKGPSVFPLAPSSKSTSGGTAALGCLVKDYFPEPVTVSWNSGALTSGVHTFPAVLQSSGLYSLSSVVTVPSSSLGTQTYICNVNHKPSNTKVDKKVEPKSCDKTSDYKDDDDKHHHHHH
light: not shown
Consider B2, for which the VZV-neutralizing activity, IC50 (plaque reduction) was determined as 2 µg/mL.

The values are drawn from patent US20100074906A1.
